Drawing on paper PMC8533005, this text covers Km and kcat for five proteins.

Common to all, as to experiment: purified protein
Substrate in series [1]: O=S(O)(O)=S
It counts as biochemical, Saccharomyces cerevisiae.

Substrate in series [2]: O=S(O)(O)=S
The conditions noted are these: pH 7.4; 37.0 °C.

Substrate in series [3]: O=S(O)(O)=S
It counts as biochemical, Homo sapiens. As to conditions: Reaction 1, sulfur donor, fixed KCN, 300 mM HEPES pH 7.4, room temperature. The text has this: thiosulfate:cyanide sulfurtransferase, ferric thiocyanate colorimetry, Michaelis-Menten fit on TST

[4] abbreviates: Reaction 1, sulfur donor, fixed KCN, 300 mM HEPES pH 7.4, 25 °C.

Residue numbers refer to the chain shown, from its start. In names and notes the source's numbering stands.

B1: RDL1 (Saccharomyces cerevisiae S288C) (protein)
chain: MWKAVMNAWNGTESQSKNVSNIQSYSFEDMKRIVGKHDPNVVLVDVREPSEYSIVHIPASINVPYRSHPDAFALDPLEFEKQIGIPKPDSAKELIFYCASGKRGGEAQKVASSHGYSNTSLYPGSMNDWVSHGGDKLDL
The term Km denotes the substrate concentration at which the rate is half of its maximum. As to B1, the Km in “purified protein [1]” (pH 7.4) came out at 4.0 ± 0.4 mM.

B2: TST (Homo sapiens; T253V) (protein)
chain: MVHQVLYRALVSTKWLAESIRTGKLGPGLRVLDASWYSPGTREARKEYLERHVPGASFFDIEECRDTASPYEMMLPSEAGFAEYVGRLGISNHTHVVVYDGEHLGSFYAPRVWWMFRVFGHRTVSVLNGGFRNWLKEGHPVTSEPSRPEPAVFKATLDRSLLKTYEQVLENLESKRFQLVDSRSQGRFLGTEPEPDAVGLDSGHIRGAVNMPFMDFLTEDGFEKGPEELRALFQTKKVDLSQPLIATCRKGVVACHVALAAYLCGKPDVAVYDGSWSEWFRRAPPESRVSQGKSEKA
In general, kcat refers to the maximal rate divided by the concentration of active sites. Turning to B2, in the series “purified protein [2]”, the Michaelis-Menten constant (Km) is 2.43 ± 0.70 mM and the kcat amounted to 0.025 s⁻¹.

B3: TST (Homo sapiens) (protein)
chain: B2 chain with V253T
notes: codon-optimized synthetic gene, pET30a, E. coli BL21(DE3), Ni-NTA and size exclusion; tandem-domain rhodanese, active-site loop CRKGVT ending in Thr253
As to B3, in “purified protein [3]”, the Km is given as 15.68 ± 2.86 mM and the kcat was 101.73 s⁻¹.

B4: RDL2 (Saccharomyces cerevisiae S288C) (protein)
chain: MFKHSTGILSRTVSARSPTLVLRTFTTKAPKIYTFDQVRNLVEHPNDKKLLVDVREPKEVKDYKMPTTINIPVNSAPGALGLPEKEFHKVFQFAKPPHDKELIFLCAKGVRAKTAEELARSYGYENTGIYPGSITEWLAKGGADVKPKK
notes: His-tagged, pET30a, E. coli BL21(DE3), Ni-NTA and size exclusion; no firm dimer in crystal; active-site loop CAKGVR with Cys106 and Arg111
With B4, in “purified protein [1]” (setting [4]), the Km was 32.5 ± 3.50 mM and the kcat was 15.32 s⁻¹.

B5: RDL2 (Saccharomyces cerevisiae S288C; K108A) (protein)
chain: B4 chain with K108A
notes: as for B4
On to B5, for which, in the series “purified protein [1]” (setting [4]), the Km is 93.23 ± 2.67 mM and the kcat was determined as 8.71 s⁻¹.
